# Substitutions are numbered along the chain they refer to. Read-outs that look alike come from different tables or passages of the source.
# B1: G9.2-25 Fab (Fab, V domains shown)
# VH: EVQLVESGGGLVQPGGSLRLSCAASGFTLSSSSIHWVRQAPGKGLEWVASIYSSYGSTSYADSVKGRFTISADTSKNTAYLQMNSLRAEDTAVYYCARQYYTYFEWYMGWGYALDYWGQGTLVTVSS
# VL: DIQMTQSPSSLSASVGDRVTITCRASQSVSSAVAWYQQKPGKAPKLLIYSASSLYSGVPSRFSGSRSGTDFTLTISSLQPEDFATYYCQQSYVYYPFTFGQGTKVEIKR
# B2: G9.2-26 Fab (Fab, V domains shown)
# VH: EVQLVESGGGLVQPGGSLRLSCAASGFTVSSSSIHWVRQAPGKGLEWVAYISSYSGSTYYADSVKGRFTISADTSKNTAYLQMNSLRAEDTAVYYCARSSALYWMDFSYSALDYWGQGTLVTVSS
# VL: DIQMTQSPSSLSASVGDRVTITCRASQSVSSAVAWYQQKPGKAPKLLIYSASSLYSGVPSRFSGSRSGTDFTLTISSLQPEDFATYYCQQGGWYYGPITFGQGTKVEIKR
# B3: G9.1-8 Fab (Fab, V domains shown)
# VH: EVQLVESGGGLVQPGGSLRLSCAASGFTVSSSSIHWVRQAPGKGLEWVAYIYPYSGYTSYADSVKGRFTISADTSKNTAYLQMNSLRAEDTAVYYCARYSTYSWGGIGKWVWGMDYWGQGTLVTVSS
# VL: B2 VL with G91S, G92Y, W93Y, Y94D, Y95S, G96N
# notes: Avitag at the C-terminus of the heavy chain, biotinylated when required; also called G9.1-8 WT Fab
# B4: G9.1-8 WT mIgG1 (antibody, V domains shown)
# VH: B3 VH
# VL: B2 VL with G91S, G92Y, W93Y, Y94D, Y95S, G96N
# B5: G9.1-7 Fab (Fab, V domains shown)
# VH: EVQLVESGGGLVQPGGSLRLSCAASGFTVSSSSIHWVRQAPGKGLEWVASISSYYGYTYYADSVKGRFTISADTSKNTAYLQMNSLRAEDTAVYYCARSYSYGYDYFVKYYTMDYWGQGTLVTVSS
# VL: B2 VL with G91Y, G92P, W93G, Y95R, P97L
# B6: G9.1-9 Fab (Fab, V domains shown)
# VH: EVQLVESGGGLVQPGGSLRLSCAASGFTVSSSSIHWVRQAPGKGLEWVAYIYSSSGYTSYADSVKGRFTISADTSKNTAYLQMNSLRAEDTAVYYCARYSSYHYPYWLFAMDYWGQGTLVTVSS
# VL: B2 VL with G91S, G92Y, W93F, Y94H, Y95K, G96I
# B7: G9.1-5 Fab (Fab, V domains shown)
# VH: EVQLVESGGGLVQPGGSLRLSCAASGFTIYYSSIHWVRQAPGKGLEWVASISSSYGSTYYADSVKGRFTISADTSKNTAYLQMNSLRAEDTAVYYCARSVSWYPYYYYYGYGSGLDYWGQGTLVTVSS
# VL: B2 VL with G91Y, G92Y, W93G, Y94W, Y95F, G96Y, I98V
# notes: Avitag at the C-terminus of the heavy chain, biotinylated when required
# B8: G9.1-8m12 mIgG2a (antibody, V domains shown)
# VH: EVQLVESGGGLVQPGGSLRLSCAASGFTVSSSSIHWVRQAPGKGLEWVAYIYPYSSSSSYADSVKGRFTISADTSKNTAYLQMNSLRAEDTAVYYCARYSTYSSSKWVWGMDYWGQGTLVTVSS
# VL: B2 VL with G91S, G92Y, W93Y, Y94D, Y95S, G96N
# notes: also called G9.1-8mut12
# B9: G9.1-8m12 Fab (Fab, V domains shown)
# VH: B8 VH
# VL: B2 VL with G91S, G92Y, W93Y, Y94D, Y95S, G96N
# notes: Purified Fab; also called G9.1-8mut12
# B10: G9.1-8m14 Fab (Fab, V domains shown)
# VH: EVQLVESGGGLVQPGGSLRLSCAASGFTVSSSSIHWVRQAPGKGLEWVAYIYPYSSSSSYADSVKGRFTISADTSKNTAYLQMNSLRAEDTAVYYCARYSTYKWVWGMDYWGQGTLVTVSS
# VL: B2 VL with G91S, G92Y, W93Y, Y94D, Y95S, G96N
# notes: Purified Fab; also called G9.1-8mut14
# B11: G9.1-8m13 mIgG2a (antibody, V domains shown)
# VH: EVQLVESGGGLVQPGGSLRLSCAASGFTVSSSSIHWVRQAPGKGLEWVAYIYPYSSSSSYADSVKGRFTISADTSKNTAYLQMNSLRAEDTAVYYCARYSTYSSKWVWGMDYWGQGTLVTVSS
# VL: B2 VL with G91S, G92Y, W93Y, Y94D, Y95S, G96N
# notes: also called G9.1-8mut13
# B12: G9.1-8m13 Fab (Fab, V domains shown)
# VH: B11 VH
# VL: B2 VL with G91S, G92Y, W93Y, Y94D, Y95S, G96N
# notes: Purified Fab; also called G9.1-8mut13
# B13: G9.1-8m14 mIgG2a (antibody, V domains shown)
# VH: B10 VH
# VL: B2 VL with G91S, G92Y, W93Y, Y94D, Y95S, G96N
# notes: also called G9.1-8mut14
# B14: G9.2-15 Fab (Fab, V domains shown)
# VH: EVQLVESGGGLVQPGGSLRLSCAASGFTVSSSSIHWVRQAPGKGLEWVASIYSSSGYTSYADSVKGRFTISADTSKNTAYLQMNSLRAEDTAVYYCARNVENYPYWAWPWGYYGAIDYWGQGTLVTVSS
# VL: DIQMTQSPSSLSASVGDRVTITCRASQSVSSAVAWYQQKPGKAPKLLIYSASSLYSGVPSRFSGSRSGTDFTLTISSLQPEDFATYYCQQSSWGLITFGQGTKVEIKR
# notes: Avitag at the C-terminus of the heavy chain, biotinylated when required; also called Fab G9.2-15
# B15: G9.2-24 Fab (Fab, V domains shown)
# VH: EVQLVESGGGLVQPGGSLRLSCAASGFTVYSSSIHWVRQAPGKGLEWVASIYSSYGYTSYADSVKGRFTISADTSKNTAYLQMNSLRAEDTAVYYCARSYSSETHYGWAMDYWGQGTLVTVSS
# VL: B14 VL with S91W, W93Q, G94S, L95P, I96V
# B16: G9.1-6 Fab (Fab, V domains shown)
# VH: EVQLVESGGGLVQPGGSLRLSCAASGFTLSSSSIHWVRQAPGKGLEWVASIYSSYGSTSYADSVKGRFTISADTSKNTAYLQMNSLRAEDTAVYYCARSSHWYMYWSYWGWYIGMDYWGQGTLVTVSS
# VL: B14 VL with S91Y, S92H, W93S, G94S, I96F
# notes: as for B7
# B17: G9.2-17 Fab (Fab, V domains shown)
# VH: EVQLVESGGGLVQPGGSLRLSCAASGFTVSSSSIHWVRQAPGKGLEWVAYISSSSGYTYYADSVKGRFTISADTSKNTAYLQMNSLRAEDTAVYYCARYWSYPSWWPYRGMDYWGQGTLVTVSS
# VL: B14 VL with W93T, G94D, L95P
# notes: Avitag at the C-terminus of the heavy chain, biotinylated when required; also called Fab G9.2-17
# B18: G9.2-17mut6 Fab (Fab, V domains shown)
# VH: B17 VH with W106S
# VL: B14 VL with W93T, G94D, L95P
# notes: Purified Fab; point mutant of G9.2-17 in CDR-H3; also called Fab G9.2-17mut6; G9.2-17m6
# What was measured:
# [1] = target: T1, human Galectin-9 CRD2 W309K mutant, biotinylated (human, UniProt O00182 218-355, biotinylated (Avitag)); assay: phage ELISA, phage-displayed Fab
# T1 construct: also called W309K Galectin-9 CRD2 mutant; not shown: tags of the pHBT vector as for wild-type CRD2
# Experimental: (§1) FIG. 13 is a graph showing a binding characterization of G9.2 Fab clone for wild-type Galectin-9 CRD2 or the […] mutant using phage ELISA. Binding of Fab clones to human Galectin-9 CRD2 assayed using phage ELISA.
# (§2) Potential additional epitopes were explored using additional clones that bind to Galectin-9 CRD2. A phage display library selection using a modified scheme so as to enrich clones that bind to an epitope that is distinct from that of G9.2-17 was performed.
# [2] = target: T2, human Galectin-9 CRD2 (residues 218-355), biotinylated (human, UniProt O00182 218-355, biotinylated in vitro with BirA (Avitag)); assay: phage ELISA, phage-displayed Fab; also on CRD2 pre-incubated with G9.2-17 IgG
# T2 construct: also called wild type human Galectin-9 CRD2; not shown: hexahistidine tag, Avitag and TEV cleavage site upstream of the cloned gene (pHBT vector)
# Experimental: as §1, §2
# [3] = target: T3, human Galectin-9 CRD1 (residues 1-148), biotinylated (human, UniProt O00182 1-148, biotinylated in vitro with BirA (Avitag)); assay: bead-based binding assay, flow cytometry
# T3 construct: Made as GST fusion, GST cleaved off with thrombin, gel filtered, biotinylated; not shown: Avitag upstream of the cloned gene (pGEX vector), left after thrombin cleavage from GST
# Experimental: (§3) The affinities of the antibodies were assessed using a bead-based assay as previously described (Nishikori et al., J Mol Biol, 2012, 424, 391-399) and surface plasmon resonance (SPR). In the bead-based assay, a biotinylated protein (either a Galectin-9 sample or a Fab sample) was immobilized on streptavidin-coated Dynabeads M280 via the biotin-streptavidin interaction. After blocking the excess biotin-binding sites on the beads using unconjugated biotin, binding titration was performed by incubating the second component (i.e., Fab for immobilized Galectin-9 or vice versa), followed by quantification using a dye-labeled neutravidin (ThermoFisher) and flow cytometry analysis. In experiments where the second component is an IgG, a dye-labeled anti-human IgG or anti-mouse IgG antibody was used for detection.
# [4] = target: T3, human Galectin-9 CRD1 (residues 1-148), …; assay: bead-based binding assay, flow cytometry; remark: listed apart in the source
# Experimental: as §3
# [5] = target: T3, human Galectin-9 CRD1 (residues 1-148), …; assay: bead-based binding assay, flow cytometry; remark: listed apart in the source
# Experimental: as §3
# [6] = target: T3, human Galectin-9 CRD1 (residues 1-148), …; assay: phage ELISA, phage-displayed Fab on biotinylated CRD
# [7] = target: T2, human Galectin-9 CRD2 (residues …); assay: bead-based binding assay
# [8] = target: T2, human Galectin-9 CRD2 (residues …); assay: phage ELISA, phage-displayed Fab
# Experimental: as §1, §2
# [9] = target: T3, human Galectin-9 CRD1 (residues 1-148), …; assay: bead-based binding assay, purified Fab (FIG. 5)
# Experimental: as §3
# [10] = target: T2, human Galectin-9 CRD2 (residues …); assay: SPR, Fab over CRD2 on Avicap chip (OneStep)
# Source text: FIG. 12 contains charts showing surface plasmon resonance analyses of Fab G9.2-17 (top) and Fab G9.2.17mut6 (bottom) binding to the CRD2 of human (left) and mouse (right) Galectin-9. Human or mouse Galectin-9 CRD2 was immobilized on an Avicap chip preloaded with neutravidin on a Pall ForteBio Pioneer instrument. Fab samples were then flowed using the OneStep method. The binding and dissociation phases of the experiments are marked in the top panels.
# In SPR experiments, a biotinylated Galectin-9 sample was immobilized on an Avicap chip (Pall ForteBio) that had been preloaded with neutravidin (ThermoFisher). Antibody samples were flowed using the OneStep method on a Pioneer SPR instrument (Pall ForteBio) and the results are provided in FIG. 6.
# T2 sequence (O00182 218-355 limits assumed): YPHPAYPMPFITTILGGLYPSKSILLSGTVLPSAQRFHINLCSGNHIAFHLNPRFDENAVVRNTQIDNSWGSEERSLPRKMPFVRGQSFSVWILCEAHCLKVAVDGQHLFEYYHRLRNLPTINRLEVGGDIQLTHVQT
# T1 sequence (O00182 218-355 W309K): as the sequence (O00182 218-355 limits assumed) above, with W92K counted along it
# T3 sequence (O00182 1-148): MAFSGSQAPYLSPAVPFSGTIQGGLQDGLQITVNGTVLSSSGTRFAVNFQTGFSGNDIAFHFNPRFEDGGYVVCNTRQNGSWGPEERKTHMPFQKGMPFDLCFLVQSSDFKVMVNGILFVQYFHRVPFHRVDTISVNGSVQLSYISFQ
binder,measurement,setting,value
B1,binding result,[1],binds
same,binding result,[2],binds
B2,binding result,[1],binds
same,binding result,[2],binds
B3,Kd,[3],0.45 nM
same,Kd,[4],2.13 nM
B4,Kd,[5],0.63 nM
same,Kd,[3],2.4 nM
B5,binding result,[6],binds
B6,binding result,[6],binds
B7,binding result,[6],binds
B8,binding result,[7],no binding
same,Kd,[5],0.32 nM
B9,Kd,[4],2.48 nM
B10,Kd,[4],58.5 nM
B11,binding result,[7],no binding
same,Kd,[5],0.3 nM
B12,Kd,[4],20.7 nM
B13,binding result,[7],no binding
same,Kd,[5],2.01 nM
B14,binding result,[8],binds
B15,binding result,[1],binds
same,binding result,[2],binds
B16,binding result,[9],binds
B17,binding result,[8],binds
B18,binding result,[10],binds
